{
  "source": "patent US20260131011A1",
  "key": {"[1]": {"biological_target": "RSVB18537"}, "[2]": {"biological_target": "hPIVC243"}, "[3]": {"biological_target": "RSVA2"}},
  "note": "No end group written: not given here.",
  "data": [
    {"binder": "VALDPIDISIELNKAKSDLEESKEWIRRSNQKLDSI (also: conjugated to cholesterol)", "note": "[HPIV3_3004 (native) HR2 ligand conjugated to cholesterol (Peptide Conjugate 12)]", "values": [
      {"measurement": "EC50", "setting": "[1]", "result": "< 40", "unit": "nM"},
      {"measurement": "EC50", "setting": "[2]", "result": "> 5290", "unit": "nM"},
      {"measurement": "EC50", "setting": "[3]", "result": 50, "unit": "nM"}
    ]}
  ]
}
